Experimental data reported in PMC12710314.

Each sequence was assayed on T1, LigR (Novosphingobium aromaticivorans DSM 12444), ORF:c1f1f590 (assay: EMSA). Settings: EMSA: 20 nM DNA, 50 mM Tris-HCl, 20 mM HEPES, 1 mM EDTA, 1 mM DTT, 100 mM NaCl, 10% glycerol, pH not stated, room temperature 30 min, gel at 4 C; DNase I ….
T1 sequence: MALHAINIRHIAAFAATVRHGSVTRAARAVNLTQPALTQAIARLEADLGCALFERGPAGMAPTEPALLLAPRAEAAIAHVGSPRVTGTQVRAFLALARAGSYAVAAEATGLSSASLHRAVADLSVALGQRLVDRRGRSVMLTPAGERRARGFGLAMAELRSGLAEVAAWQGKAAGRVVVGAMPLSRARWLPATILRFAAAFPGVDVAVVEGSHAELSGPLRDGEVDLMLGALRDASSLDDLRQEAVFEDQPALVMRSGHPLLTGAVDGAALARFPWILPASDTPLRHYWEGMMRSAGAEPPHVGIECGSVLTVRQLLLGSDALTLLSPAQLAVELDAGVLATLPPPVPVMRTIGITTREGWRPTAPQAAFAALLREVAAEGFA
“GCCTTCTGCTTCTCGCGCCACTCGTCGTGCGCCTTCGGCAGCACGGTGTAGTGACCGTGGCAGTCGATGATCATGGTCATGCGACTTCAGTCCTCTCAAGTTTGAACTCTATGGTCTTGCCCGCCTGCTCGCGCTGGCGCCTCACCGTCCCGCCGGTCATCACCGGCTCGACGCCCAGCGATTCCAGCGTCTTGGCTGAC (double strand) [ligJ upstream EMSA fragment]” was tested, and the binding was “no binding”. For “CGATCTGAAGTGCTCAACGTGCAAAGCCTGCACAAAATGACAGGTCGTGCCGGCATCTCAATCGCCTGTTGCTTCCCCTTCTGCTGATTGCTATAAATCATAACAGATTGGGAGAGAGTCATGCAGTTTGAACGCATCAATCCGATGACCGGCGCCGTCGCCTCGCAGGCAGAGGCCATGAAAGCGTCGGACATTCCTTC (double strand) [ligV upstream EMSA fragment]”, the binding was “no binding”. With “ATGCCCAGGCCGATGCCGCTGGCGCCGCCCGTCACGAAAGCCGTCTTGCCCGGCAGATTCTGCATCGATCCTCTCCTTTGGTGCCTTGCCGGCAGCCATCGACCGGCGCCGGGAATCATTTTTCGCCTTTTGTATTCACCAGCGAGGAATTGTATGCAAGACTAACAATATTGCTGCTTCGACAAGGCCCGCCGAAATGGGTCGCCGCAGCGGGA (double strand) [ligN upstream EMSA fragment]” the binding was “no binding”. “GGACGACGATACCCGACATTTCCGGCTCCCGATGAAAGATCTTCGCGCGTTCCATGGAACTGCGGACCGCAGGGAACCAATGCATTGTTTGCCCCGGCCCATAAGGAAATGCTAAGTGATCAGGCATGGCCCTGCACGCGATCAACATCAGGCACATCGCCGCCTTCGCCGCAACGGTGCGCCACGGCAGCGTGACGCGG (double strand) [ligK promoter EMSA fragment]” was tested, and the binding was “binds”. With “CAAAGGTCGACCCGGCCTCACCGAAGCCGATCAGGGCGATTGTGAACTCAGGAACGCTCTCCATGGCAGCGGTCCTGCGTCGGCCGCGCCAAAGGAACAAATGCAAACATCGCCCAAGGTATAAATTTATGCAAAGCCTTCTGCGGCCACTTCGCGCAGGAGGGCCGCGAAGGCCGCCTGCGGCGCGGTCGGCCGCCAAC (double strand) [SARO_RS14280 promoter EMSA fragment]” the binding was “binds”.
